This data set has as its target native CA lattice tubes (HIV-1, UniProt P12493 133-363). Briefly: filter binding.

The values below come from paper PMC8860611.

B1: CA15-2 (1-104) (structured_RNA)
RNA: GGAAGAAGAGAAUCAUACACAAGAUCGACGUACCUCAGGGUGGUGUAUGACUGAGGUGAAGACUGUGAACCAUGGCAUGCGGGCAUAAGGUAGGUAAGUCCAUA
For B1, the binding result was “binds”.
